The values that follow come from US20040072184A1.

The target in one test is T1, CapK peptide.
T1 sequence (peptide): CGRTGRRNSI
In words: cell-based or functional assay.

For another test, the target named is T2, PKB-sub peptide.
T2 sequence (peptide): CKRPRAASFAE
In words: cell-based or functional assay.

B1: GST-SGK2 fusion protein (enzyme, not shown: a dimerising Fc or GST)
chain: MNSSPAGTPSPQPSRANGNINLGPSANPNAQPTDFDFLKVIGKGNYGKVLLAKRKSDGAFYAVKVLQKKSILKKKEQSHIMAERSVLLKNVRHPFLVGLRYSFQTPEKLYFVLDYVNGGELFFHLQRERRFLEPRARFYAAEVASAIGYLHSLNIIYRDLKPENILLDCQGHVVLTDFGLCKEGVEPEDTTSTFCGTPEYLAPEVLRKEPYDRAVDWWCLGAVLYEMLHGLPPFYSQDVSQMYENILHQPLQIPGGRTVAACDLLQSLLHKDQRQRLGSKADFLEIKNHVFFSPINWDDLYHKRLTPPFNPNVTGPADLKHFDPEFTQEAVSKSIGCTPDTVASSSGASSAFLGFSYAPEDDDILDC
In the test with CapK peptide, B1 came in with a kinase activity, CapK sub (CCPM1); GST-SGK2 from Hi5 cells treated with Calyculin A of 59300 CCPM1; a kinase activity, CapK sub (CCPM1); GST-SGK2 from Hi5 cells treated with Microcysteine of 330 CCPM1; a kinase activity, CapK sub (CCPM1); GST-SGK2 from Hi5 cells treated with Okadaic Acid of 162000 CCPM1; a kinase activity, CapK sub (CCPM1); GST-SGK2 from untreated Hi5 cells of 1080 CCPM1. In the test with PKB-sub peptide, the kinase activity, PKB sub (CCPM1); GST-SGK2 from Hi5 cells treated with Calyculin A is 92500 CCPM1; the kinase activity, PKB sub (CCPM1); GST-SGK2 from Hi5 cells treated with Microcysteine came out at 217 CCPM1; the kinase activity, PKB sub (CCPM1); GST-SGK2 from Hi5 cells treated with Okadaic Acid was determined as 132000 CCPM1; the kinase activity, PKB sub (CCPM1); GST-SGK2 from untreated Hi5 cells worked out at 979 CCPM1.
